B2: human SLAM (SLAM1, encoded by pSURslam1), cell surface (receptor)
chain: RMMNCPKILRQLGSKVLLPLTYERINKSMNKSIHIVVTMAKSLENSVENKIVSLDPSEAGPPRYLGDRYKFYLENLTLGIRESRKEDEGWYLMTLEKNVSVQRFCLQLRLYEQVSTPEIKVLNKTQENGTCTLILGCTVEKGDHVAYSWSEKAGTHPLNPANSSHLLSLTLGPQHADNIYICTVSNPISNNSQTFSPWPGCRTDPSETKPWAVYAGLLGGVIMILIMVVILQLRRRGKTNHYQTTVEKKSLTIYAQVQKPGPLQKKLDSFPAQDPCTTIYVAATEPVPESVQETNSITVYASVTLPES

Key:
[1] = target: human SLAM (SLAM1, encoded by pSURslam1), cell surface (human) (UniProt Q13291); assay: cell-based or functional assay
[2] = target: B2; assay: flow cytometry on SLAM/L cells; reference mAb A12
Protocol: The binding of SLAM-Ig to SLAM transfectants is specific for the SLAM portion of the molecule and not the Ig, as the staining was performed in the presence of excess IgG in the 30% human serum added. Furthermore, SLAM transfectants were not stained by other Fc containing molecules such as CD40-Ig. The binding of SLAM-Ig was about 5-fold lower than the binding to SLAM/L cells observed using an equivalent concentration of the mAb A12. […] SLAM-Ig binding to transfected cells was not inhibited by EDTA.
(§1) The A12 anti-SLAM mAb has been described. Phycoerythrin conjugated CD45RO and CD3 mAbs were purchased from Becton-Dickinson. Cells stained with mAbs, SLAM-Ig or CD40-Ig were washed three times with PBS, 2% FCS and analyzed using a FACScan (Becton-Dickinson).

[3] = target: B2; assay: flow cytometry on different SLAM-expressing cell types; reference mAb A12
Text: as §1
However, SLAM-Ig did bind to EBV-transformed B-cell lines and CD4^+ T-cell clones, both cell types which we have shown to express SLAM. In no cell types tested did SLAM-Ig bind to cells not expressing SLAM. In addition, the levels of SLAM-Ig binding co-modulated with SLAM expression on CD45RO^+ T cells following activation with anti-CD3. The level of SLAM-IG staining relative to A12 staining on different cell-types was consistent with that observed on L-cell transfectants being 5-fold lower and Ca^++ independent.

[4] = target: the molecule itself; assay: SPR (BIACORE), SLAM-Ig immobilized, SLAM-Ig in solution at 100 nM to 1500 nM, 5 µl/min
Protocol: (§2) Ab 7D4/SLAM-Ig and SLAM-Ig/SLAM-Ig binding kinetics and affinity were measured. About 8000 resonance units (RUs) of SLAM-Ig were covalently attached to the dextran matrix in the sensor chip via its lysines, according to the manufacturers protocol (BIACORE™ manual, Pharmacia Biosensor). Buffer (phosphate-buffer saline, PBS, pH 7.0) was passed through the flow cell until all of the dissociable protein was removed and the baseline remained stable. Solutions containing various concentrations of the antibody 7D4 in PBS (ranging from 10 nM to 500 nM) were then passed through the flow cell. An increase in mass of protein bound was observed, followed by a decrease when the protein solution was replaced with buffer. A non-linear data analysis protocol, O'Shannessy, et al. (1993) *Anal. Biochem.* 212:457–468, was used to analyze the data to determine the association (k_a) and dissociation (k_d) rate constants. The equilibrium dissociation constant K_d was then calculated from the ratio k_d/k_a.
SLAM-Ig/SLAM-Ig binding kinetics were measured in a similar manner. After immobilization of SLAM-Ig to the chip, solutions of SLAM-Ig at concentrations ranging from 100 nM to 1500 nM were passed through the flow cell at a flow rate of 5 μl/min. From the association and dissociation phases, the corresponding rate constants and thus the equilibrium binding constant were obtained.

[5] = target: the molecule itself; assay: SPR (BIACORE), SLAM-Ig immobilized, SLAM-Ig in solution; apparent Kd from the rate constants
Protocol: The equilibrium constants for SLAM/SLAM interactions were analyzed by surface plasmon resonance using a BIACORE™ (Pharmacia) instrument. An anti-SLAM Ab 7D4 was used.
as §2
SLAM-Ig/SLAM-Ig binding kinetics were measured in a similar manner. […]

[6] = target: the molecule itself; assay: cell-based or functional assay

## anti-SLAM monoclonal antibody A12 (IgG1)
[1]
  IFN-γ production (pg/ml) by antigen-stimulated T-cell clone Th0/ChT38; no antibody 5207, control Ab 7463: 20600 pg/mL
  IFN-γ production (pg/ml) by antigen-stimulated T-cell clone Th0/MoT81; no antibody 5423, control Ab 6596: 18200 pg/mL
  IFN-γ production (pg/ml) by antigen-stimulated T-cell clone Th1/HY06; no antibody 5982, control Ab 5904: 21900 pg/mL
  IFN-γ production (pg/ml) by antigen-stimulated T-cell clone Th1/TA20; no antibody 8374, control Ab 8070: 15400 pg/mL
  IFN-γ production (pg/ml) by antigen-stimulated T-cell clone Th2/MoT72; no antibody 496, control Ab 170: 8580 pg/mL
  IFN-γ production (pg/ml) by antigen-stimulated T-cell clone Th2/NP12; no antibody 962, control Ab 902: 8300 pg/mL
  IFN-γ production (pg/ml) by antigen-stimulated T-cell clone Th2/NP44; no antibody 1073, control Ab 1319: 7660 pg/mL
  IFN-γ production by Th2 clones, fold upregulation: 5 to 17 fold
  IL-4 production (pg/ml) by antigen-stimulated T-cell clone Th0/ChT38; no antibody 12907, control Ab 10102: 15000 pg/mL
  IL-4 production (pg/ml) by antigen-stimulated T-cell clone Th0/MoT81; no antibody 8455, control Ab 8451: 11100 pg/mL
  IL-4 production (pg/ml) by antigen-stimulated T-cell clone Th1/HY06; no antibody 48, control Ab 40: 90 pg/mL
  IL-4 production (pg/ml) by antigen-stimulated T-cell clone Th1/TA20; no antibody 62, control Ab 69: 97 pg/mL
  IL-4 production (pg/ml) by antigen-stimulated T-cell clone Th2/MoT72; no antibody 8805, control Ab 8542: 16500 pg/mL
  IL-4 production (pg/ml) by antigen-stimulated T-cell clone Th2/NP12; no antibody 6636, control Ab 6486: 11100 pg/mL
  IL-4 production (pg/ml) by antigen-stimulated T-cell clone Th2/NP44; no antibody 11617, control Ab 11738: 10400 pg/mL
  anti-CD3 induced T-cell proliferation at optimal anti-CD3, fold increase: 2 to 3 fold

B1: SLAM-Ig (SLAM-immunoglobulin fusion protein: entire extracellular domain of human SLAM fused to the Fc portion of human IgG1 heavy chain) (Fc fusion)
chain: ASYGTGGRMMNCPKILRQLGSKVLLPLTYERINKSMNKSIHIVVTMAKSLENSVENKIVSLDPSEAGPPRYLGDRYKFYLENLTLGIRESRKEDEGWYLMTLEKNVSVQRFCLQLRLYEQVSTPEIKVLNKTQENGTCTLILGCTVEKGDHVAYSWSEKAGTHPLNPANSSHLLSLTLGPQHADNIYICTVSNPISNNSQTFSPWPGCRTDPSETKP
notes: Fluorescein conjugated for flow cytometry; also called recombinant SLAM-Ig; soluble form of SLAM (SLAM-Ig); not shown: Fc portion of the human IgG1 heavy chain
[2]
  fold lower binding than an equivalent concentration of mAb A12: ~5 fold
[3]
  fold lower staining relative to A12 staining: 5 fold
[4]
  koff: 0.011 s⁻¹
  kon: 12000 M⁻¹ s⁻¹
[5]
  Kd: 920 nM

## B2
[6]
  proliferation of T cell clone B21 activated with SLAM/L cells, fold enhancement by cyclosporin at 2 µg/ml: 2 fold

Reference: patent US6399065 (SCHERING, dated 2002)
